# In US20110217318A1 (MOCHIDA PHARMACEUTICAL, published 2011):
# Changes are numbered by the printed parent chain.
# B1: F1232-37-2 F(ab')2 (other)
# VH: VQLQQSGPELVRPGESVKISCKGSGYTFTDYAIHWVKLSHAKSLEWIGVISIYYDDTNYNQKFKGKATMTVDKSSSTAYLELARLTSEDSAIYYCARRRDSSGPYAMDYWGQGTSVTVSS
# VL: DIVLTQSPASLAVSLGQRATISCRASESVDSYGNSFMHWYQQKPGQPPKLLIYRASNLESGIPARFSGSGSRTDFTLTINPVEADDVATYYCQQSNEDPYTFGGGTKLEIKRADAA
# notes: F(ab')2 made from the mouse antibody with lysyl endopeptidase
# B2: humanized F1232-37-2: Eu-HC with REI-KA (antibody, human IgG4, V domains shown)
# VH: QVQLVQSGAEVKKPGSSVKVSCKASGGTFSDYAIHWVRQAPGQGLEWIGVISIYYDDTNYNQKFKGKATITADESTNTAYMELSSLRSEDTAIYYCARRRDSSGPYAMDYWGQGTLVTVSS
# VL: DIQMTQSPSSLSASVGDRVTITCRASESVDSYGNSFMHWYQQKPGKAPKLLIYRASNLESGVPSRFSGSGSGTDFTFTISSLQPEDIATYYCQQSNEDPYTFGQGTKVEIKR
# notes: human IgG4 heavy and kappa light constant regions
# B3: humanized F1232-37-2: Eu-HC with Eu-KA (antibody, human IgG4, V domains shown)
# VH: B2 VH
# VL: B2 VL with S10T, I52M, S67I, D74E, F77L, E85D, I87F, I110V
# notes: as for B2
# B4: F1232-37-2 Fab (Fab, V domains shown)
# VH: B1 VH
# VL: DIVLTQSPASLAVSLGQRATISCRASESVDSYGNSFMHWYQQKPGQPPKLLIYRASNLESGIPARFSGSGSRTDFTLTINPVEADDVATYYCQQSNEDPYTFGGGTKLEIKR
# notes: Fab made from the mouse antibody with papain
# B5: F1249-18-2 (antibody, V domains shown)
# VH: QVQLQQPGAELVKPGASVKLSCKASGYTFTSYWMHWLKQRPGQGLEWIGMIHPNSDITNYNEKFKNKATLTVDKSSSTAYMQLSSLTSEDSAVYYCARSGDYYAMDYWGQGTSVTVSS
# VL: SIVMTQTPKFLLVSAGDRVTITCKASQSVSNDVAWYQQKPGQSPKLLIYYASNRYTGVPDRFTGSGYGTDFTFTISTVQAEDLAVYFCQQDYSSPPTFGGGTKLEIKR
# notes: mouse hybridoma monoclonal antibody
# B6: F1245-5-1 (antibody, V domains shown)
# VH: QVQLQQPGAELVKPGASVKLSCKASGYTFISYWMHWVKQRPGQGLEWIGMIHPNSGSTHYNEKFKSKATLTVDKSSSTAYMQLSSLTSEDSAVYYCARGGVTPVAYWGQGTLVTVSA
# VL: B5 VL with P96W
# notes: as for B5
# B7: F1245-4-1 (antibody, V domains shown)
# VH: QVQLQQPGAELVKPGASVKLSCKASGCTFTSYWMHWVKQRPGQGLEWIGMIHPNSDNTNYNEKFKSKATLTVDKSSSTAYMHLSSLTSEDSAVYYCATHYYDYVDYWGQGTTLTVSS
# VL: B5 VL with S1N, P96W
# notes: as for B5
# B8: F1245-6-2 (antibody, V domains shown)
# VH: B6 VH with I30T, H59N
# VL: B5 VL with D60Y, P96W
# notes: as for B5
# B9: F1249-5-1 (antibody, V domains shown)
# VH: B5 VH with D73A, S99L
# VL: B5 VL with A34T
# notes: as for B5
# B10: F1249-22-1 (antibody, V domains shown)
# VH: QVQLQQPGAELVKPGASVKLSCKASGYTFTSYWMQWVKERPGQGLEWIGEIDPSDSYTNYNQKFKGKATLTVDTSSSTACMQLSSLTSEDSAVYYCARGAITTATLDYWGQGTTLTVSS
# VL: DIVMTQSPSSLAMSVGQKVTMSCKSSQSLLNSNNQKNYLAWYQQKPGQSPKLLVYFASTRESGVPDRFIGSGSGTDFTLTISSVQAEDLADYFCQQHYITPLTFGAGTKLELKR
# notes: as for B5
# B11: F1251-1-1 (antibody, V domains shown)
# VH: QVNLLQSGAALVKPGASVKLSCKASGYTFTDYYIHWVKQSHGKSLEWIGYINPNSGYTNYNEKFKSKATLTVDKSTNTAYMELSRLTSEDSATYYCTRCNSGYGDWFAYWGQGTLLTVSS
# VL: DIQMTQSPPVLSASVGDRVTLSCKASQNINKNLDWYQQKHGEAPKLLIYYTNNLQTDIPSRFSGSGSGTDYTLTISSLQPEDVATFYCYQYNSGPGTFGAGTKLELKR
# notes: rat hybridoma monoclonal antibody
# B12: F1246-1-1 (antibody, V domains shown)
# VH: EVQLVESGGDLVKPGGSLKLSCAASGFTFSSYGMSWVRQTPDKRLEWVATISNGGTYTYYPDSVKGRFTISRDNAKNTLYLQMSSLKSDDTAMYYCGRLRDYYAMDYWGQGTSVTVSS
# VL: B4 VL with Y100W
# notes: as for B5
# B13: F1249-24-1 (antibody, V domains shown)
# VH: QVQLQQSGAELVRPGVSVKISCKGSGYTFTDYAMHWVKQSHAKSLEWIGVISTYYGDTSYNQKFKGKATMTVDKSSSTAYMELARLTSEDSAIYYCARAEDYDPWFAYWGQGTLVTVSA
# VL: B4 VL with N96D, Y100L, G104A, I110L
# notes: as for B5
# B14: F1249-3-2 (antibody, V domains shown)
# VH: EVQLVESGGGLVKPGGSLKLSCAASGFTFSSYGMSWVRQTPDKRLEWVATISSGGSYTYYSDSVKGRFTISRDNAKNNLYLQLSSLKSQDTAIYYCARDSGYFDYWGQGTTLTVSS
# VL: B4 VL with D1N, R54L, I62V, N80D, V87A, S95N, Y100R
# notes: as for B5
# B15: F1249-20-1 (antibody, V domains shown)
# VH: B13 VH
# VL: B4 VL with H38Y, N96D, Y100L, G104A, I110L
# notes: as for B5
# B16: F1249-30-1 (antibody, V domains shown)
# VH: B13 VH with T69A, E89D
# VL: B4 VL with N96D, Y100L, G104A, I110L
# notes: as for B5
# B17: F1257-3-1 (antibody, V domains shown)
# VH: QVTLKESGPGMLQPSKTLSLTCSFSGFSLSTSGMVVSWIRQPSGKSLEWLAAIDWDGDKYYNPSLKSRLTVSKDTSNTQVFLKISSVDIADTATYYCARTPYYGYKEAYYFDYWGQGVKVTVSS
# VL: DIQMTQSPASLSASLEEIVTITCKASRAIDDYLSWYQQKPGKSPQLLIYDATSLADGVPSRFSGSRSGTQYSLKISRPQVDDSGIYYCLQSYSTPWTFGGGTKLDLKR
# notes: as for B11
# B18: F1245-7-1 (antibody, V domains shown)
# VH: QVQLQQPGAELVKPGASVKLSCKASGYTFTSYWMHWVKQRPGQGLEWIGMIHPNSGSTNYNEKFKSKATLTVDKSSSTAYMQLSSLTSEDSAVYYCASPVTAVVEYYFDYWGQGTTLTVSS
# VL: SIVMTQTPKFLLVSAGDRVTITCKASQSVSNDVAWYQQKPGQSPKLLIYYASNRYTGVPDRFTGSGYGTDFTFTISTVQAEDLAVYFCQQDYSSLTFGSGTKLEIKR
# notes: as for B5
# Molecular target: T1, human GPVI extracellular region-human Fc fusion protein (hGPVI-hFc) (human)
# T1 construct: Expressed in COS-1, purified on Protein A; also called GPVI-HHH-hFc; hGPVIHHH-hFc
# Assay: SPR BIACORE 3000, hGPVI-hFc on CM5 chip, 0-800 nM, bivalent analyte fit
# Procedure: (§1) Dissociation constant for F1232-37-2 (whole antibody) prepared in EXAMPLE 2, and F(ab′)2 and Fab prepared in 22-1 and 21-2 was measured with Protein Interaction Analyzer BIACORE® 3000 (BIACORE). That is, hGPVI-hFc prepared in EXAMPLE 1 was coupled to sensorchip CM5 (BIACORE) according to the manual. Then a series of dilution from 0 to 800 nM of each antibody was prepared with HBS-EP buffer (BIACORE) and analyzed with BIACORE® 3000. After completion of antibody binding, chip was regenerated with glycine buffer (pH 1.5) (BIACORE). Regarding the results of whole antibody and F(ab′)₂, evaluation software Bivalent analyte (BIACORE) was used for analysis; 1:1 Binding for Fab analysis. Then the dissociation constant was calculated. As a result, dissociation constant of F1232-37-2 F(ab′)2 and Fab was about 0.7 and 0.6, respectively, when that of whole antibody defined as one.
# T1 sequence (chain, as listed by the source limits assumed): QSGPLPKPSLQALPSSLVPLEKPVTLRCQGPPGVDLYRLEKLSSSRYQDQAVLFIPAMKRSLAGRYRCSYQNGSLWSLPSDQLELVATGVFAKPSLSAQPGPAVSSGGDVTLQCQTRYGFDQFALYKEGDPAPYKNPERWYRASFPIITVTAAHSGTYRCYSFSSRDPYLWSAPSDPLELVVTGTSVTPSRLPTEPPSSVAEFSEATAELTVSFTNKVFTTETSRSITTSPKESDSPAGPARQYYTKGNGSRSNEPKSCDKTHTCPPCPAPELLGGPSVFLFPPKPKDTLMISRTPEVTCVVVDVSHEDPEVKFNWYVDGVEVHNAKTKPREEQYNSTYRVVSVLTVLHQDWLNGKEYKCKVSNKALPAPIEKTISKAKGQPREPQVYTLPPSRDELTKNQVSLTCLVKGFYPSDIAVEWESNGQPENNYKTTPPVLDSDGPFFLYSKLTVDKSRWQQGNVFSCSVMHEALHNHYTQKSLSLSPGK
row,dissociation constant relative to whole antibody,Binder
1,~0.7 relative to whole F1232-37-2 = 1,B1

# Molecular target: T1, human GPVI extracellular region-human …
# Assay: binding to antigen of co-expressed chains; antigen construct not named
row,binding result,Binder
1,binds,B2
2,binds,B3

# Molecular target: T1, human GPVI extracellular region-human …
# Assay: SPR BIACORE 3000, hGPVI-hFc on CM5 chip, 0-800 nM, 1:1 binding fit
# Procedure: as §1
row,dissociation constant relative to whole antibody,Binder
1,~0.6 relative to whole F1232-37-2 = 1,B4

# Molecular target: T1, human GPVI extracellular region-human …
# Assay: SPR BIACORE 3000 as in Example 5
row,KD (Relative value),Binder
1,0.00103 relative to F1232-37-2 = 1,B5
2,1.43 relative to F1232-37-2 = 1,B6
3,0.00427 relative to F1232-37-2 = 1,B7
4,0.122 relative to F1232-37-2 = 1,B8
5,0.00285 relative to F1232-37-2 = 1,B9
6,2.06 relative to F1232-37-2 = 1,B10
7,7.9 relative to F1232-37-2 = 1,B11
8,0.884 relative to F1232-37-2 = 1,B12
9,0.00821 relative to F1232-37-2 = 1,B13
10,1.59 relative to F1232-37-2 = 1,B14
11,0.00205 relative to F1232-37-2 = 1,B15
12,0.347 relative to F1232-37-2 = 1,B16
13,0.00298 relative to F1232-37-2 = 1,B17
14,0.00293 relative to F1232-37-2 = 1,B18
